Here are results for two substances from patent US20080124280A1.

The target in experiment [1] is purified αVβ3 integrin (UniProt P06756). Briefly: antibody at 1 µg/ml added to 2 µg purified αVβ3 before [125I]-T4; native gel, band intensity.
Experiment [2] shares this target. The experiment in a line: antibody at 2 µg/ml added to 2 µg purified αVβ3 before [125I]-T4; native gel, band intensity.
Experiment [3] shares this target. Briefly: antibody at 4 µg/ml added to 2 µg purified αVβ3 before [125I]-T4; native gel, band intensity.
Experiment [4] shares this target. Briefly: antibody at 8 µg/ml added to 2 µg purified αVβ3 before [125I]-T4; native gel, band intensity.
Experiment [5] has the same target. Briefly: antibody at 8 µg/ml added to purified αVβ3 30 min before [125I]-T4; native gel; the legend's value differs from the 59% of paragraph 377.

Sequence of purified αVβ3 integrin (P06756 31-1048 limits assumed, form in doubt, chain 1 of 2): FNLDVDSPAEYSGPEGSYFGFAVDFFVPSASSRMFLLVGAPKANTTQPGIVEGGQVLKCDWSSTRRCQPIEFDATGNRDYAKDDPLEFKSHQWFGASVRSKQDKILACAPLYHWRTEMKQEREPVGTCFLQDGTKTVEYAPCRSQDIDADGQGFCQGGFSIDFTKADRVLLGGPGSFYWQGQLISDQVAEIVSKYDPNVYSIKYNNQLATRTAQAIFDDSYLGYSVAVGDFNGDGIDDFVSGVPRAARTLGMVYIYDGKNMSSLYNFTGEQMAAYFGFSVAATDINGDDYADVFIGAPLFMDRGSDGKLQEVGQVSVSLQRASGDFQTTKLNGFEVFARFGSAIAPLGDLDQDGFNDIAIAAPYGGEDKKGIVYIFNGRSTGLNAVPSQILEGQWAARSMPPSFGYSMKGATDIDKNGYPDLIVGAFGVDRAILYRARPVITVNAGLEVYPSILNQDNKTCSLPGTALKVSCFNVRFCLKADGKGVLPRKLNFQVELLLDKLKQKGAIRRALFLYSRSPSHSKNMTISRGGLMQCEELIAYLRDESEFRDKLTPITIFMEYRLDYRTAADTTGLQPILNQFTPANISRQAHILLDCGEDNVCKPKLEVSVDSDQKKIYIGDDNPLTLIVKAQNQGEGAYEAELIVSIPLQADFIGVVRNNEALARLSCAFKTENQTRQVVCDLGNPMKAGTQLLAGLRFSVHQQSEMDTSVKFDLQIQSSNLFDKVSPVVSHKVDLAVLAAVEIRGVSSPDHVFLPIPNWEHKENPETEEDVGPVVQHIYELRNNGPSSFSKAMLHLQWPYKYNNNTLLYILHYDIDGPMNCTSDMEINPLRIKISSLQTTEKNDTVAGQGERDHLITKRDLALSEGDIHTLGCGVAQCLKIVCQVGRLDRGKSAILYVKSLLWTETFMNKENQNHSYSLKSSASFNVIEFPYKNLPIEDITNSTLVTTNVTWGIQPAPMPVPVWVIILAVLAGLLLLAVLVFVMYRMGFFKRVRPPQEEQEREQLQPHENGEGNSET
Sequence of purified αVβ3 integrin (P05106 27-788 limits assumed, form in doubt, chain 2 of 2, further chain): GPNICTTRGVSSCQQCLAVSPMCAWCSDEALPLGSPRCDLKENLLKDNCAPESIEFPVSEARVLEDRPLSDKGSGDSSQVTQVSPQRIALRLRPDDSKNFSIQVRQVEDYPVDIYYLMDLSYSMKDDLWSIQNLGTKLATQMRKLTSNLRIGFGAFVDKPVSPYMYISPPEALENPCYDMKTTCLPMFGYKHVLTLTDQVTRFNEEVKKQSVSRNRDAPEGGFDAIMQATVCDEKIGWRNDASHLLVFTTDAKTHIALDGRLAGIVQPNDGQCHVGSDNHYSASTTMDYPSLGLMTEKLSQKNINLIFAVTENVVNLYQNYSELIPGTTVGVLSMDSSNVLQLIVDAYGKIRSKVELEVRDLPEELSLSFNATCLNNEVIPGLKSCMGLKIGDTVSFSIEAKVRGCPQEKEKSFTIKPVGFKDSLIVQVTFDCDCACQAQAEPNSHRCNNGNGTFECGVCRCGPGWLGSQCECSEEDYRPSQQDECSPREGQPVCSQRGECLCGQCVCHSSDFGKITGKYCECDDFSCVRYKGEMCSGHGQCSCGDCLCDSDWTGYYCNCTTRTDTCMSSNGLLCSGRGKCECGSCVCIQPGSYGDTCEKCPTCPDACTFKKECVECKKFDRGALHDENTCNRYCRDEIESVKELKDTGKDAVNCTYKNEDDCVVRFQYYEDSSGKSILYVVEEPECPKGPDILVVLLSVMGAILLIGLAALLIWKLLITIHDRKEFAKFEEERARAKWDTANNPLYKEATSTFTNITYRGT

In the experiment with purified αVβ3 integrin [1], monoclonal antibody LM609 to αVβ3 registered a percent reduction of integrin-[125I]T4 complex formation of 52%. Moreover, the figures for the percent decrease of band intensity (integrin-[125I]T4 complex) in the experiment with purified αVβ3 integrin [2], with purified αVβ3 integrin [3] and with purified αVβ3 integrin [4] were 64%, 63% and 81%, respectively.

Regarding monoclonal antibody SC7312 to αVβ3, the percent reduction of T4 binding to αVβ3 with purified αVβ3 integrin [1] came to 20%; with purified αVβ3 integrin [2], 46%; with purified αVβ3 integrin [3], 47%; with purified αVβ3 integrin [4] it was 59%; with purified αVβ3 integrin [5], 58%.
